{"source": "paper PMC3925968", "about": "“Single molecule FRET reveals pore size and opening mechanism of a mechano-sensitive ion channel” (eLife, 2014)", "proteins": {"B1": {"name": "E. coli MscL (EcoMscL) M42C (natural protein, UniProt P0A742 1-136, looked up)", "chain": "MSIIKEFREFAMRGNVVDLAVGVIIGAAFGKIVSSLVADIICPPLGLLIGGIDFKQFAVTLRDAQGDIPAVVMHYGVFIQNVFDFLIVAFAIFMAIKLINKLNRKKEEPAAAPAPTKEEVLLTEIRDLLKEQNNRS", "modifications": "Alexa Fluor 488 and/or Alexa Fluor 568 maleimide on the introduced cysteine (stochastic labelling)", "notes": "Mechanosensitive channel of large conductance MscL, Escherichia coli, single cysteine mutant on TM1; The MscL gene was cloned into pQE-32 as a BamHI-SalI fragment; 5% labeled channels were mixed with 95% unlabeled ones for reconstitution; also called mechanosensitive channel of large conductance; source: E. coli M15, purified from DDM solubilized membranes (TALON, FPLC Superdex 200), …"}, "B2": {"name": "E. coli MscL (EcoMscL) I25C (natural protein, UniProt P0A742 1-136, looked up)", "chain": "MSIIKEFREFAMRGNVVDLAVGVICGAAFGKIVSSLVADIIMPPLGLLIGGIDFKQFAVTLRDAQGDIPAVVMHYGVFIQNVFDFLIVAFAIFMAIKLINKLNRKKEEPAAAPAPTKEEVLLTEIRDLLKEQNNRS", "modifications": "Alexa Fluor 488 and/or Alexa Fluor 568 maleimide on the introduced cysteine (stochastic labelling)", "notes": "Mechanosensitive channel of large conductance MscL, Escherichia coli, single cysteine mutant on TM1 near the pore constriction; Same construct as m1 apart from the cysteine position; Pentamer on cited work; some hexamers not excluded; source: E. coli M15, purified from DDM solubilized membranes (TALON, FPLC Superdex 200), reconstituted into liposomes; not shown: His6, N-terminal, kept"}, "B3": {"name": "E. coli MscL (EcoMscL) A27C (natural protein, UniProt P0A742 1-136, looked up)", "chain": "MSIIKEFREFAMRGNVVDLAVGVIIGCAFGKIVSSLVADIIMPPLGLLIGGIDFKQFAVTLRDAQGDIPAVVMHYGVFIQNVFDFLIVAFAIFMAIKLINKLNRKKEEPAAAPAPTKEEVLLTEIRDLLKEQNNRS", "modifications": "Alexa Fluor 488 and/or Alexa Fluor 568 maleimide on the introduced cysteine (stochastic labelling)", "notes": "Mechanosensitive channel of large conductance MscL, Escherichia coli, single cysteine mutant on TM1; Same construct as m1 apart from the cysteine position; Pentamer on cited work; some hexamers not excluded; source: E. coli M15, purified from DDM solubilized membranes (TALON, FPLC Superdex 200), reconstituted into liposomes; not shown: His6, N-terminal, kept"}, "B4": {"name": "E. coli MscL (EcoMscL) V82C (natural protein, UniProt P0A742 1-136, looked up)", "chain": "MSIIKEFREFAMRGNVVDLAVGVIIGAAFGKIVSSLVADIIMPPLGLLIGGIDFKQFAVTLRDAQGDIPAVVMHYGVFIQNCFDFLIVAFAIFMAIKLINKLNRKKEEPAAAPAPTKEEVLLTEIRDLLKEQNNRS", "modifications": "Alexa Fluor 488 and/or Alexa Fluor 568 maleimide on the introduced cysteine (stochastic labelling)", "notes": "Mechanosensitive channel of large conductance MscL, Escherichia coli, single cysteine mutant on TM2; Same construct as m1 apart from the cysteine position; Pentamer on cited work; some hexamers not excluded; source: E. coli M15, purified from DDM solubilized membranes (TALON, FPLC Superdex 200), reconstituted into liposomes; not shown: His6, N-terminal, kept"}, "B5": {"name": "E. coli MscL (EcoMscL) Y75C (natural protein, UniProt P0A742 1-136, looked up)", "chain": "MSIIKEFREFAMRGNVVDLAVGVIIGAAFGKIVSSLVADIIMPPLGLLIGGIDFKQFAVTLRDAQGDIPAVVMHCGVFIQNVFDFLIVAFAIFMAIKLINKLNRKKEEPAAAPAPTKEEVLLTEIRDLLKEQNNRS", "modifications": "Alexa Fluor 488 and/or Alexa Fluor 568 maleimide on the introduced cysteine (stochastic labelling)", "notes": "as for B4"}, "B6": {"name": "E. coli MscL (EcoMscL) Q80C (natural protein, UniProt P0A742 1-136, looked up)", "chain": "MSIIKEFREFAMRGNVVDLAVGVIIGAAFGKIVSSLVADIIMPPLGLLIGGIDFKQFAVTLRDAQGDIPAVVMHYGVFICNVFDFLIVAFAIFMAIKLINKLNRKKEEPAAAPAPTKEEVLLTEIRDLLKEQNNRS", "modifications": "Alexa Fluor 488 and/or Alexa Fluor 568 maleimide on the introduced cysteine (stochastic labelling)", "notes": "as for B4"}}, "target": "the molecule itself", "test": "FRET or BRET; single molecule FRET (TIRF) between one AF488 donor and one AF568 acceptor on the single cysteines of two subunits of one channel; channels in ~50 nm POPC liposomes with 2% BPE, immobilised on a coverslip by biotin-neutravidin; without and with 25% LPC"}
{"protein": "B1", "values": [{"measurement": "binding result", "result": "binds"}]}
{"protein": "B2", "values": [{"measurement": "binding result", "result": "binds"}]}
{"protein": "B3", "values": [{"measurement": "binding result", "result": "binds"}]}
{"protein": "B4", "values": [{"measurement": "binding result", "result": "binds"}]}
{"protein": "B5", "values": [{"measurement": "binding result", "result": "binds"}]}
{"protein": "B6", "values": [{"measurement": "binding result", "result": "binds"}]}
